Key:
[1] = molecular target: annexin 2/S100A10 heterotetrameric complex (Bos taurus, UniProt P04272;P60902 P04272:2-339,P60902:2-97); test: filter; 0-12.5 nM protein, 1 pmol RNA in 200 ul RPMI 1640, 3 ug yeast tRNA, ambient temperature; very strong affinity compared with control; conditions: tags: purified from bovine lung, Interchim A80109B; chain copies: 2 annexin 2 + 2 S100A10 (stated); label: 32P, phycoerythrin, Alexa Fluor 546, biotin or Quantum Dot depending on assay; predicted secondary structure with potential pseudoknots
Experimental: 1 pmol of ACE8 aptamer or of the control sequence was then preincubated with various concentrations of an annexin 2/S100A10 heterotetrameric complex. The fraction of ACE8 aptamer or of control sequence bound to the annexin 2/S100A10 heterotetramer was retained on a nitrocellulose filter and analyzed and quantified using a Storm Phosphorimager. […] FIG. 23 represents the quantification of the amount of oligonucleotides retained on the filter as a function of the concentration of annexin 2/S100A10 heterotetramer.
For this, the oligonucleotides (ACE8 aptamer or control sequence (SEQ ID NO: 11)) were dephosphorylated at their 5′ end for 30 min at 37° C. with 2.5 U of Antarctic Phosphatase (New-England Biolabs) per nmol of 2′F-Py RNA. After inactivation of the enzyme at 88° C. for 15 min, the 2′F-Py RNA was precipitated with ethanol in the presence of 5 μl/ml of a neutral coprecipitant (Linear Polyacrylamide or LPA) (Ambion). The oligonucleotides were then labeled with ATP [gamma-³²P] using T4 kinase (invitrogen) according to the supplier's instructions. The 2′F-Py RNAs (2.3 MBq, i.e. 63nCi/pmol or 63nCi/pmol⁻¹) were subsequently purified by exclusion chromatography (Bio-Spin Sp30 Chromatography Columns (Biorad)). […]

annexin 2 [2] = molecular target: T1, annexin 2 (Homo sapiens, UniProt P07355 SEQ:2-339); test: HEK-293 cells, Scatchard; Cmax 269 pM; conditions: label: 32P, phycoerythrin, Alexa Fluor 546, biotin or Quantum Dot depending on assay; predicted secondary structure with potential pseudoknots
annexin 2 [3] = molecular target: T1, annexin 2; test: A-431 cells, Scatchard; Cmax 450 pM; conditions: label: 32P, phycoerythrin, Alexa Fluor 546, biotin or Quantum Dot depending on assay; predicted secondary structure with potential pseudoknots
Experimental: (§1) The binding curves were obtained for each cell type. On the basis of the specific binding, and using the Scatchard representation, the Kd and the number of targets per cell were determined for each of the cell types. The target of the ACE8 aptamer appears to be highly abundant at the surface of two human cancer lines (MCF-7 and A-431).

annexin 2 [4] = molecular target: T1, annexin 2; test: U87-MG cells, Scatchard; Cmax 245 pM; conditions: label: 32P, phycoerythrin, Alexa Fluor 546, biotin or Quantum Dot depending on assay; predicted secondary structure with potential pseudoknots
annexin 2 [5] = molecular target: T1, annexin 2; test: MDA-MB-231 cells, Scatchard; Cmax 167 pM; conditions: label: 32P, phycoerythrin, Alexa Fluor 546, biotin or Quantum Dot depending on assay; predicted secondary structure with potential pseudoknots
Experimental: as §1

T1 sequence (P07355 2-339): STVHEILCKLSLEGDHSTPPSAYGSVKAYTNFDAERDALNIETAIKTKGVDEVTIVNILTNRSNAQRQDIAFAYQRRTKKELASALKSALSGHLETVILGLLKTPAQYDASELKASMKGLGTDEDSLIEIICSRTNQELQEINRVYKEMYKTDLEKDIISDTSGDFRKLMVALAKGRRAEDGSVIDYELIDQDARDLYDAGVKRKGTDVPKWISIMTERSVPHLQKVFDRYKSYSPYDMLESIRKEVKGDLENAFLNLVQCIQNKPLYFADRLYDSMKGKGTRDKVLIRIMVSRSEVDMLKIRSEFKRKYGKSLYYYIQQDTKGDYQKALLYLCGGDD
Sequence of annexin 2/S100A10 heterotetrameric complex (P04272 2-339, chain 1 of 2): as the sequence (P07355 2-339) above, with A65E, I159V, P222C, D229E, R244K, R308K counted along it
Sequence of annexin 2/S100A10 heterotetrameric complex (P60902 2-97, chain 2 of 2): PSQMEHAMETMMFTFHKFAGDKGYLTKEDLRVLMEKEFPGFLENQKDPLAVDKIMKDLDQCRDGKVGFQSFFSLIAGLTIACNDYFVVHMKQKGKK

B1: ACE8 (ssRNA)
RNA: GGGAGAUGAUCCGUUGAUGCGAGGGAACGCAAGAACUGAGGCCAUGAGGCGCCUUCCCUUGCUCAGGACGCAAGUCGUCGUUCGUAGGCAGAAUC
modifications: 2'-F pyrimidines, 2'-OH purines
binding result [1]: binds
Kd (annexin 2 [2]): 4.4 nM
Kd (annexin 2 [3]): 5.3 nM
Kd (annexin 2 [4]): 12.7 nM
Kd (annexin 2 [5]): 4.4 nM
